# Assay results as given in patent publication US8497352B2, “Use of Wnt5-α peptide derivates for the treatment of melanoma and gastric cancer” (Wntresearch AB, priority 2008, dated 2013).
# B1: Wnt-5a: human recombinant Wnt-5a protein from R&D Systems (protein, UniProt P41221 62-380, looked up)
# Protein Wnt-5a: IIGAQPLCSQLAGLSQGQKKLCHLYQDHMQYIGEGAKTGIKECQYQFRHRRWNCSTVDNTSVFGRVMQIGSRETAFTYAVSAAGVVNAMSRACREGELSTCGCSRAARPKDLPRDWLWGGCGDNIDYGYRFAKEFVDARERERIHAKGSYESARILMNLHNNEAGRRTVYNLADVACKCHGVSGSCSLKTCWLQLADFRKVGDALKEKYDSAAAMRLNSRGKLVQVNSRFNSPTTQDLVYIDPSPDYCVRNESTGSLGTQGRLCNKTSEGMDGCELMCCGRGYDQFKTVQTERCHCKFHWCCYVKCKKCTEIVDQFVCK
# How the values were obtained:
# Type in all cases: cell-based, human
# A2058 melanoma cells [1] = assay: BD Matrigel invasion chamber assay, A2058 cells; settings: 0.2 μg/ml Wnt-5a, 24 hours
# Protocol: Cell invasion was analyzed using the BD Matrigel™ invasion chamber assay (BD Biosciences, Bedford, Mass.). Prior to the initiation of each experiment, the cells were detached with Versene and re-suspended as single cells in serum-free RPMI medium. As indicated, cells were pre-incubated with the Box5 peptide (100 μM) or control solvent for 40 min with continuous agitation. An aliquot of the cell suspension containing 25,000 cells and 100 μM Box5 or control solvent was then added to the upper transwell chamber, and the lower chamber was filled with serum-containing (10%) medium. The invasion chambers were shaken horizontally for 5 min to ensure even distribution of the cells in suspension and subsequently across the membrane surface. The cells were allowed to invade for the periods of time indicated at 37° C. in a humidified atmosphere of 5% CO2. The medium was discarded and cells were fixed in 4% paraformaldehyde for 10 min. The cells were stained with 0.5% crystal violet in 20% methanol for 10 min and the non-invading cells on the inner side of the membrane were removed with a cotton-tipped applicator. The membrane was cut out of the chamber using a scalpel blade and the stained cells on the lower chamber side of the membrane were counted.
# A2058 melanoma cells [2] = assay: Wound-healing assay (migration), A2058 cells; settings: 0.2 μg/ml Wnt-5a, serum-free medium
# Protocol: Cells were plated in 12 well plates and allowed to grow into a confluent layer in complete RPMI (for A2058 cells) or complete McCoy's 5A medium (for HTB63 cells). As indicated, cells were pre-incubated with the Box5 peptide (100 μM) or control solvent for 40 min with continuous agitation. A wound was then inflicted by making a scratch through the confluent layer of cells with a pipette tip. During the migration period of the assay, cells were incubated either in serum-free medium or in the case of HTB63 cells in their own serum-free-conditioned medium collected from cells cultured for 48 h and used within 2 days after collection. The exact conditions of each experiment are described above. To avoid loss of activity, cell medium was changed after 24 hours. A picture for each scratch was taken in the same area of cells at 0, 16, 24, 40 and 48 hours, and wound healing was measured as percentage of wound area closed. For each experimental condition wound healing was analysed in triplicate. All data were based on 3 to 8 separate experiments as indicated.
# PKC = assay: MARCKS phosphorylation (PKC activity) in A2058 cells, Western blot; settings: rWnt-5a 0.2 μg/ml
# Protocol: The cells were either directly lysed in 1× Laemmli buffer containing DTT and boiled for 10 min, or lysed in buffer containing 50 mM Tris-HCl (pH 7.5), 1% Triton X-100, 100 mM NaCl, 10 mM MgCl2, 20% glycerol, 1 mM Na3VO4, and protease inhibitors (20 μg/ml aprotinin, 1 μg/ml leupeptin, 2.5 mM benzamidine, and 2 mM pefabloc). Cell treated with lysis buffer were centrifuged at 15,000 rpm for 5 min at 4° C. The protein content in each sample was determined and adjusted to ensure equal loading of protein in each lane. Thereafter, 50 mM DTT and 5× concentrated Laemmli buffer was added and the samples boiled for 5 min. The samples were separated by SDS polyacrylamide gel electrophoresis and subsequently transferred to PVDF membranes. For immunoblotting the membranes were blocked in PBS supplemented with 0.2% Tween 20 and 1% non-fat milk for Wnt-5a or 3% non-fat milk as for all other antibodies for 1 h. […] Finally, the Ab-antigen complexes were detected using enhanced chemiluminescence. […]
# In the present study the level of PKC auto-phosphorylation (Weeraratna et al., 2002, Dissanayake et al., 2007) was not estimated since its relation to PKC kinase activity is unclear. Instead the effects of Wnt-5a and Box5 on the phosphorylation of the endogenous PKC substrate MARCKS were analyzed as a direct means of estimating the activity level of PKC in the melanoma cells. […]
molecule,measurement,setting,value
B1,Effect on invasion of A2058 cells,A2058 melanoma cells [1],stimulate
same,Effect on migration of A2058 cells,A2058 melanoma cells [2],increased
same,Effect on phosphorylation of MARCKS,PKC,increased phosphorylation
